47 variants from the Human Domainome abundance scans (Beltran et al. 2025) can be followed below.

The chains are these.
B1: Zinc finger homeobox protein 4, residues 2562 to 2617; numbered along this chain, Q86UP3 (parent)
chain: RLRTTITPEQLEILYEKYLLDSNPTRKMLDHIAREVGLKKRVVQVWFQNTRARERK

± gives the uncertainty stated by the source.

The variants in this series derive from B1. Nature of the series: abundance fitness (aPCA) (normalised: wild type 0, dead -1); higher = more abundant; growth selection in yeast, the domain comes from the species named. Conditions: Homo sapiens.
As to RLRTTITPEQLEILYEKYLLDSNPTRKMLDHIAREVGLKKRVVQHWFQNTRARERK, the abundance fitness is -0.262 ± 0.27.
With RLRTTITPEQLEILYEKYLLDSNPTRKMLDHIAREVGLKKRVVQYWFQNTRARERK the figure was -0.036 ± 0.2; with RLRTTITPEQLEILYEKYLLDSNPTRKMLDHIAREVGLKKRVVQAWFQNTRARERK, -0.243 ± 0.092; with RLRTTITPEQLEILYEKYLLDSNPTRKMLDHIAREVGLKKRVVQIWFQNTRARERK, -0.057 ± 0.14.
With RLRTTITPEQLEILYEKYLLDSNPTRKMLDHIAREVGLKKRVVQCWFQNTRARERK the figure was -0.352 ± 0.13.
Consider RLRTTITPEQLEILYEKYLLDSNPTRKMLDHIAREVGLKKRVVQWWFQNTRARERK, for which the abundance fitness is -0.439 ± 0.11.
In the case of RLRTTITPEQLEILYEKYLLDSNPTRKMLDHIAREVGLKKRVVQLWFQNTRARERK, the abundance fitness was -0.111 ± 0.056.
With RLRTTITPEQLEILYEKYLLDSNPTRKMLDHIAREVGLKKRVVQNWFQNTRARERK the figure was -0.384 ± 0.27; with RLRTTITPEQLEILYEKYLLDSNPTRKMLDHIAREVGLKKRVVQDWFQNTRARERK, 0.192 ± 0.067.
Consider RLRTTITPEQLEILYEKYLLDSNPTRKMLDHIAREVGLKKRVVQTWFQNTRARERK, for which the abundance fitness was -0.045 ± 0.075.
The figure for RLRTTITPEQLEILYEKYLLDSNPTRKMLDHIAREVGLKKRVVQSWFQNTRARERK is -0.309 ± 0.1.
The figure for RLRTTITPEQLEILYEKYLLDSNPTRKMLDHIAREVGLKKRVVQQWFQNTRARERK is -0.568 ± 0.21; for RLRTTITPEQLEILYEKYLLDSNPTRKMLDHIAREVGLKKRVVQEWFQNTRARERK it is 0.535 ± 0.098.
For the variant RLRTTITPEQLEILYEKYLLDSNPTRKMLDHIAREVGLKKRVVQPWFQNTRARERK, the abundance fitness was -0.754 ± 0.2.
The figure for RLRTTITPEQLEILYEKYLLDSNPTRKMLDHIAREVGLKKRVVQGWFQNTRARERK is -0.198 ± 0.083.
For the variant RLRTTITPEQLEILYEKYLLDSNPTRKMLDHIAREVGLKKRVVQRWFQNTRARERK, the abundance fitness was -0.402 ± 0.069.
For RLRTTITPEQLEILYEKYLLDSNPTRKMLDHIAREVGLKKRVVQFWFQNTRARERK, the abundance fitness is -0.738 ± 0.2.
With RLRTTITPEQLEILYEKYLLDSNPTRKMLDHIAREVGLKKRVVQKWFQNTRARERK the figure was -0.249 ± 0.11; with RLRTTITPEQLEILYEKYLLDSNPTRKMLDHIAREVGLKKRVVQVWFDNTRARERK, 0.392 ± 0.11; with RLRTTITPEQLEILYEKYLLDSNPTRKMLDHIAREVGLKKRVVQVWFNNTRARERK, -0.216 ± 0.17.
The figure for RLRTTITPEQLEILYEKYLLDSNPTRKMLDHIAREVGLKKRVVQVWFFNTRARERK is -0.389 ± 0.12.
For the variant RLRTTITPEQLEILYEKYLLDSNPTRKMLDHIAREVGLKKRVVQVWFINTRARERK, the abundance fitness was -0.693 ± 0.34.
The figure for RLRTTITPEQLEILYEKYLLDSNPTRKMLDHIAREVGLKKRVVQVWFKNTRARERK is -0.006 ± 0.098.
On to RLRTTITPEQLEILYEKYLLDSNPTRKMLDHIAREVGLKKRVVQVWFCNTRARERK, for which the abundance fitness is -0.287 ± 0.091.
The figure for RLRTTITPEQLEILYEKYLLDSNPTRKMLDHIAREVGLKKRVVQVWFLNTRARERK is -0.611 ± 0.12.
With RLRTTITPEQLEILYEKYLLDSNPTRKMLDHIAREVGLKKRVVQVWFANTRARERK the figure was 0.2 ± 0.093; with RLRTTITPEQLEILYEKYLLDSNPTRKMLDHIAREVGLKKRVVQVWFENTRARERK, 0.433 ± 0.07; with RLRTTITPEQLEILYEKYLLDSNPTRKMLDHIAREVGLKKRVVQVWFGNTRARERK, 0.178 ± 0.079.
In the case of RLRTTITPEQLEILYEKYLLDSNPTRKMLDHIAREVGLKKRVVQVWFHNTRARERK, the abundance fitness is -0.139 ± 0.14.
The figure for RLRTTITPEQLEILYEKYLLDSNPTRKMLDHIAREVGLKKRVVQVWFMNTRARERK is -0.16 ± 0.084.
The figure for RLRTTITPEQLEILYEKYLLDSNPTRKMLDHIAREVGLKKRVVQVWFPNTRARERK is -1.02 ± 0.29.
The figure for RLRTTITPEQLEILYEKYLLDSNPTRKMLDHIAREVGLKKRVNQVWFQNTRARERK is -0.829 ± 0.4; for RLRTTITPEQLEILYEKYLLDSNPTRKMLDHIAREVGLKKRVKQVWFQNTRARERK it is -0.965 ± 0.27; for RLRTTITPEQLEILYEKYLLDSNPTRKMLDHIAREVGLKKRVWQVWFQNTRARERK it is -0.78 ± 0.089.
As for RLRTTITPEQLEILYEKYLLDSNPTRKMLDHIAREVGLKKRVIQVWFQNTRARERK, the abundance fitness is -0.147 ± 0.084.
With RLRTTITPEQLEILYEKYLLDSNPTRKMLDHIAREVGLKKRVCQVWFQNTRARERK the figure was -0.505 ± 0.12.
The figure for RLRTTITPEQLEILYEKYLLDSNPTRKMLDHIAREVGLKKRVGQVWFQNTRARERK is -0.89 ± 0.085; for RLRTTITPEQLEILYEKYLLDSNPTRKMLDHIAREVGLKKRVLQVWFQNTRARERK it is -0.306 ± 0.083; for RLRTTITPEQLEILYEKYLLDSNPTRKMLDHIAREVGLKKRVSQVWFQNTRARERK it is -0.723 ± 0.16.
Take RLRTTITPEQLEILYEKYLLDSNPTRKMLDHIAREVGLKKRVTQVWFQNTRARERK: the abundance fitness was -0.553 ± 0.079.
The figure for RLRTTITPEQLEILYEKYLLDSNPTRKMLDHIAREVGLKKRVFQVWFQNTRARERK is -0.861 ± 0.28; for RLRTTITPEQLEILYEKYLLDSNPTRKMLDHIAREVGLKKRVPQVWFQNTRARERK it is -0.862 ± 0.24; for RLRTTITPEQLEILYEKYLLDSNPTRKMLDHIAREVGLKKRVAQVWFQNTRARERK it is -0.462 ± 0.063.
In the case of RLRTTITPEQLEILYEKYLLDSNPTRKMLDHIAREVGLKKRVRQVWFQNTRARERK, the abundance fitness was -0.974 ± 0.072.
The figure for RLRTTITPEQLEILYEKYLLDSNPTRKMLDHIAREVGLKKRVDQVWFQNTRARERK is -0.778 ± 0.22; for RLRTTITPEQLEILYEKYLLDSNPTRKMLDHIAREVGLKKRVEQVWFQNTRARERK it is -0.925 ± 0.12; for RLRTTITPEQLEILYEKYLLDSNPTRKMLDHIAREVGLKKRVVKVWFQNTRARERK it is -0.035 ± 0.094.
